Reference: paper doi:10.1101/2024.06.02.597006 (bioRxiv, 2024)

Key:
[1] = molecular target: T1, Pex5 (full-length yeast Pex5, 1-612), His-Sumo cleaved off (Saccharomyces cerevisiae, UniProt P35056 1-612); experiment: cryo-EM structure
T1 sequence (looked up): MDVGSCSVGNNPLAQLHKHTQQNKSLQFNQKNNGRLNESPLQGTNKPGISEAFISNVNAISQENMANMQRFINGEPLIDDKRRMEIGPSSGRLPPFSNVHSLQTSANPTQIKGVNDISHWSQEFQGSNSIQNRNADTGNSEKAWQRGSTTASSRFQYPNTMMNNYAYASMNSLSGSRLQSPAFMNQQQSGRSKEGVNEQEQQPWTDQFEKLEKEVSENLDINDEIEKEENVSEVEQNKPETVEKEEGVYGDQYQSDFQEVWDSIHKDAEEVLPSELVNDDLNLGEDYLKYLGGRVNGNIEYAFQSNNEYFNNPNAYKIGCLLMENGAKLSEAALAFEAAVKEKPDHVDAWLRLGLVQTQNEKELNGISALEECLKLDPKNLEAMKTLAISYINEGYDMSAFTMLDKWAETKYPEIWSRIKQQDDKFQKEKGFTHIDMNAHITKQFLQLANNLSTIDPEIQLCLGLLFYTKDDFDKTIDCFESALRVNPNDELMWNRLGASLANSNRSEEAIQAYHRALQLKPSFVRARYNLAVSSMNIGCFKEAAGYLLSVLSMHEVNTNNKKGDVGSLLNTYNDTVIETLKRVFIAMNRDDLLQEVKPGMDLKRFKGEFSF

cryo-EM structure = molecular target: the molecule itself; experiment: cryo-EM structure

stoichiometry N [1]: 6 Eci1 per Pex5
B1: FLAG-Eci1 (yeast delta3, delta2-Enoyl-CoA Isomerase 1) (enzyme, Saccharomyces cerevisiae (yeast), UniProt Q05871 1-280, looked up)
chain: MSQEIRQNEKISYRIEGPFFIIHLMNPDNLNALEGEDYIYLGELLELADRNRDVYFTIIQSSGRFFSSGADFKGIAKAQGDDTNKYPSETSKWVSNFVARNVYVTDAFIKHSKVLICCLNGPAIGLSAALVALCDIVYSINDKVYLLYPFANLGLITEGGTTVSLPLKFGTNTTYECLMFNKPFKYDIMCENGFISKNFNMPSSNAEAFNAKVLEELREKVKGLYLPSCLGMKKLLKSNHIDAFNKANSVEVNESLKYWVDGEPLKRFRQLGSKQRKHRL
stoichiometry N (cryo-EM structure): 6
